From the Immune Epitope Database (IEDB)

Key:
Details in all cases: source organism: Vibrio cholerae
HLA-C*07:02 = experiment: IEDB peptide-MHC binding, purified MHC/direct/fluorescence; filed as Kd, often an IC50 or EC50 that approximates it; ≥ and ≤ were set here for values at or beyond the usual limits of such assays
HLA-A*01:01 = experiment: IEDB peptide-MHC binding, purified MHC/competitive/fluorescence; filed as Kd, often an IC50 or EC50 that approximates it; ≥ and ≤ were set here for values at or beyond the usual limits of such assays
HLA-A*02:01 = experiment: as above
HLA-A*02:03 = experiment: as above
HLA-A*02:12 = experiment: as above
HLA-A*02:19 = experiment: as above
HLA-A*03:01 = experiment: as above
HLA-A*11:01 = experiment: as above
HLA-A*23:01 = experiment: as above
HLA-A*24:03 = experiment: as above
HLA-A*26:01 = experiment: as above
HLA-A*29:02 = experiment: as above
HLA-A*30:02 = experiment: as above
HLA-A*66:01 = experiment: as above
HLA-A*68:02 = experiment: as above
HLA-B*07:02 = experiment: as above
HLA-B*08:01 = experiment: as above
HLA-B*14:02 = experiment: as above
HLA-B*15:01 = experiment: as above
HLA-B*15:17 = experiment: as above
HLA-B*18:01 = experiment: as above
HLA-B*27:05 = experiment: as above
HLA-B*40:01 = experiment: as above
HLA-B*44:02 = experiment: as above
HLA-B*46:01 = experiment: as above
HLA-B*51:01 = experiment: as above
HLA-B*53:01 = experiment: as above
HLA-B*57:01 = experiment: as above
HLA-B*58:01 = experiment: as above

TRAPAPFPL was tested, and the Kd (HLA-C*07:02) was 0.045 µM, the Kd (HLA-A*01:01) was at least 5 µM and the Kd (HLA-A*02:01) was at least 20 µM. It also gave a Kd (HLA-A*02:03) of at least 20 µM, a Kd (HLA-A*02:12) of at least 20 µM and a Kd (HLA-A*02:19) of at least 20 µM. For the same sequence, the Kd (HLA-A*03:01) was at least 20 µM, the Kd (HLA-A*11:01) was at least 5 µM and the Kd (HLA-A*23:01) was 3.5 µM. The Kd (HLA-A*24:03) was at least 20 µM, the Kd (HLA-A*26:01) was at least 20 µM and the Kd (HLA-A*29:02) was at least 20 µM. The Kd (HLA-A*30:02) was at least 5 µM, the Kd (HLA-A*66:01) was at least 5 µM and the Kd (HLA-A*68:02) was 0.13 µM. It also gave a Kd (HLA-B*07:02) of at least 5 µM, a Kd (HLA-B*08:01) of at least 5 µM and a Kd (HLA-B*14:02) of 0.565 µM. The Kd (HLA-B*15:01) was at least 20 µM, the Kd (HLA-B*15:17) was at least 20 µM and the Kd (HLA-B*18:01) was at least 20 µM. The Kd (HLA-B*27:05) was 0.0123 µM, the Kd (HLA-B*40:01) was at least 5 µM and the Kd (HLA-B*44:02) was at least 5 µM. The Kd (HLA-B*46:01) was at least 20 µM, the Kd (HLA-B*51:01) was at least 20 µM and the Kd (HLA-B*53:01) was at least 5 µM. The Kd (HLA-B*57:01) was at least 20 µM and the Kd (HLA-B*58:01) was at least 5 µM.
